# According to the RNAGym collection of RNA variant scans (doi:10.1101/gr.219683.116):
# B1: mRNA-splicing (parent)
# chain: AGUUGCUGCUGGGAGCUCCAGCACAGUGAAAUGGACAGAAGGGCAGAGCAA
# Variants of: B1
# Assay: exon inclusion enrichment index; higher = more inclusion; WT1 exon 5 minigene, HEK293
row,Variant,exon inclusion enrichment index
1,G5A C6U U7A G8U C9A C44A A45G,0.0995
2,G5A C6U U7A G8U C9A C44A A45U,0.189
3,G5A C6U U7A G8U C9A C44G,0.115
4,G5A C6U U7A G8U C9A C44G A45C,0.138
5,G5A C6U U7A G8U C9A C44G A45G,0.0089
6,G5A C6U U7A G8U C9A C44G A45U,0.0272
7,G5A C6U U7A G8U C9A C44U,0.00684
8,G5A C6U U7A G8U C9A C44U A45C,0.1
9,G5A C6U U7A G8U C9A C44U A45G,0.0383
10,G5A C6U U7A G8U C9A C44U A45U,0.0242
11,G5A C6U U7A G8U C9A G11A,0.00945
12,G5A C6U U7A G8U C9A G11A G12A,0.00659
13,G5A C6U U7A G8U C9A G11A G12C,0.0285
14,G5A C6U U7A G8U C9A G11A G12U,0.01
15,G5A C6U U7A G8U C9A G11C,0.191
16,G5A C6U U7A G8U C9A G11C G12A,0.0128
17,G5A C6U U7A G8U C9A G11C G12C,0.0512
18,G5A C6U U7A G8U C9A G11C G12U,0.0197
19,G5A C6U U7A G8U C9A G11U,0.0798
20,G5A C6U U7A G8U C9A G11U G12A,0.00404
21,G5A C6U U7A G8U C9A G11U G12C,0.033

row,Variant,exon inclusion enrichment index
1,G5A C6U U7A G8U C9A G11U G12U,0.00843
2,G5A C6U U7A G8U C9A G12A,0.0361
3,G5A C6U U7A G8U C9A G12A G13A,0.027
4,G5A C6U U7A G8U C9A G12A G13C,0.0112
5,G5A C6U U7A G8U C9A G12A G13U,0.000604
6,G5A C6U U7A G8U C9A G12C,0.0374
7,G5A C6U U7A G8U C9A G12C G13A,0.0284
8,G5A C6U U7A G8U C9A G12C G13C,0.0141
9,G5A C6U U7A G8U C9A G12C G13U,0.000527
10,G5A C6U U7A G8U C9A G12U,0.0278
11,G5A C6U U7A G8U C9A G12U G13A,0.00185
12,G5A C6U U7A G8U C9A G12U G13C,0.00721
13,G5A C6U U7A G8U C9A G12U G13U,0.00049
14,G5A C6U U7A G8U C9A G13A,0.144
15,G5A C6U U7A G8U C9A G13A A14C,0.394
16,G5A C6U U7A G8U C9A G13A A14G,0.0895
17,G5A C6U U7A G8U C9A G13A A14U,0.189
18,G5A C6U U7A G8U C9A G13C,0.0162
19,G5A C6U U7A G8U C9A G13C A14C,0.039
20,G5A C6U U7A G8U C9A G13C A14G,0.145
21,G5A C6U U7A G8U C9A G13C A14U,0.0623

row,Variant,exon inclusion enrichment index
1,G5A C6U U7A G8U C9A G13U,0.00122
2,G5A C6U U7A G8U C9A G13U A14C,0.0467
3,G5A C6U U7A G8U C9A G13U A14G,0.00922
4,G5A C6U U7A G8U C9A G13U A14U,0.0119
5,G5A C6U U7A G8U C9A G15A,0.0278
6,G5A C6U U7A G8U C9A G15A C16A,0.0139
7,G5A C6U U7A G8U C9A G15A C16G,0.0191
8,G5A C6U U7A G8U C9A G15A C16U,0.0138
9,G5A C6U U7A G8U C9A G15C,0.156
10,G5A C6U U7A G8U C9A G15C C16A,0.0446
11,G5A C6U U7A G8U C9A G15C C16G,0.0723
12,G5A C6U U7A G8U C9A G15C C16U,0.0353
13,G5A C6U U7A G8U C9A G15U,0.0601
14,G5A C6U U7A G8U C9A G15U C16A,0.0179
15,G5A C6U U7A G8U C9A G15U C16G,0.0108
16,G5A C6U U7A G8U C9A G15U C16U,0.00626
17,G5A C6U U7A G8U C9A G21A,0.071
18,G5A C6U U7A G8U C9A G21A C22A,0.0256
19,G5A C6U U7A G8U C9A G21A C22G,0.0719
20,G5A C6U U7A G8U C9A G21A C22U,0.021
21,G5A C6U U7A G8U C9A G21C,0.0844

row,Variant,exon inclusion enrichment index
1,G5A C6U U7A G8U C9A G21C C22A,0.109
2,G5A C6U U7A G8U C9A G21C C22G,0.197
3,G5A C6U U7A G8U C9A G21C C22U,0.0665
4,G5A C6U U7A G8U C9A G21U,0.0639
5,G5A C6U U7A G8U C9A G21U C22A,0.0356
6,G5A C6U U7A G8U C9A G21U C22G,0.0561
7,G5A C6U U7A G8U C9A G21U C22U,0.00572
8,G5A C6U U7A G8U C9A G26A,0.141
9,G5A C6U U7A G8U C9A G26A U27A,0.122
10,G5A C6U U7A G8U C9A G26A U27C,0.504
11,G5A C6U U7A G8U C9A G26A U27G,0.168
12,G5A C6U U7A G8U C9A G26C,0.142
13,G5A C6U U7A G8U C9A G26C U27A,0.0751
14,G5A C6U U7A G8U C9A G26C U27C,0.489
15,G5A C6U U7A G8U C9A G26C U27G,0.442
16,G5A C6U U7A G8U C9A G26U,0.0898
17,G5A C6U U7A G8U C9A G26U U27A,0.0488
18,G5A C6U U7A G8U C9A G26U U27C,0.536
19,G5A C6U U7A G8U C9A G26U U27G,0.261
20,G5A C6U U7A G8U C9A G28A,0.0134
